These results are taken from PMC2756985 (Biochemistry, 2009).

The assay can be described thus: Oxygen dissociation rates of DevS proteins, stopped flow. The format is binding, Mycobacterium tuberculosis.

B1: DevS: full length wild-type heme sensor kinase DevS of Mycobacterium tuberculosis (protein, UniProt P9WGK3 1-578, looked up)
chain: MTTGGLVDENDGAAMRPLRHTLSQLRLHELLVEVQDRVEQIVEGRDRLDGLVEAMLVVTAGLDLEATLRAIVHSATSLVDARYGAMEVHDRQHRVLHFVYEGIDEETVRRIGHLPKGLGVIGLLIEDPKPLRLDDVSAHPASIGFPPYHPPMRTFLGVPVRVRDESFGTLYLTDKTNGQPFSDDDEVLVQALAAAAGIAVANARLYQQAKARQSWIEATRDIATELLSGTEPATVFRLVAAEALKLTAADAALVAVPVDEDMPAADVGELLVIETVGSAVASIVGRTIPVAGAVLREVFVNGIPRRVDRVDLEGLDELADAGPALLLPLRARGTVAGVVVVLSQGGPGAFTDEQLEMMAAFADQAALAWQLATSQRRMRELDVLTDRDRIARDLHDHVIQRLFAIGLALQGAVPHERNPEVQQRLSDVVDDLQDVIQEIRTTIYDLHGASQGITRLRQRIDAAVAQFADSGLRTSVQFVGPLSVVDSALADQAEAVVREAVSNAVRHAKASTLTVRVKVDDDLCIEVTDNGRGLPDEFTGSGLTNLRQRAEQAGGEFTLASVPGASGTVLRWSAPLSQ
modifications: full-length
Turning to B1, the O2 koff was 6.79 ± 0.33 ^b s^−1.
